B1: RgDAAO (Rhodotorula toruloides) (protein)
chain: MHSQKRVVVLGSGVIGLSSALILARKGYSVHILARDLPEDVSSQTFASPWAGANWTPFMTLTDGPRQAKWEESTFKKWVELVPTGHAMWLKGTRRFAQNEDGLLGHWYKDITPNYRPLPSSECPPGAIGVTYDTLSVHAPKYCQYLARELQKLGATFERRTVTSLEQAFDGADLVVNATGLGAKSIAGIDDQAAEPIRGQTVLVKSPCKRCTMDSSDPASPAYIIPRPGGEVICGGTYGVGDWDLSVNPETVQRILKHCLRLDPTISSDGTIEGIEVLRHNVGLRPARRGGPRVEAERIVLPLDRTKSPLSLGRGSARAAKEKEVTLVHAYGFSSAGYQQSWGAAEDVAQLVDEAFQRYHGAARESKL
notes: synthetic gene, N-terminal His6 tag, expressed in E. coli, Ni-NTA purified

What was measured:
TtAT = molecular target: T1, TtAT (Thermus thermophilus, UniProt Q75WK2); assay: PLP to PMP conversion, absorbance decrease at […] nm; format: biochemical; conditions: 50 mM HEPES-NaOH pH 8.0, 0.1 M KCl, 25 °C, 20 μM enzyme, no amine acceptor; racemate used as amine donor
T1 construct: gene TthHB5018_10190; C-terminal His6 tag, amplified from genomic DNA, plasmid pET20b-ttGlnAT, expressed in E. coli BL21(DE3), Ni-NTA purified

purified protein [1] = substrate: NC(Cc1ccc(-c2ccccn2)nc1)C(=O)O; assay: purified protein; format: biochemical, Rhodotorula toruloides; conditions: 75 mM phosphate pH 8.5, 1 mM o-dianisidine, 1 U HRP, 25 °C, 119 nM enzyme, racemate used, value calibrated accordingly
purified protein [2] = substrate: NC(Cc1cnc2c(O)cccc2c1)C(=O)O; assay: purified protein; format: biochemical, Rhodotorula toruloides; conditions: 75 mM phosphate pH 8.5, 1 mM o-dianisidine, 1 U HRP, 25 °C, 119 nM enzyme, racemate used, value calibrated accordingly
purified protein [3] = substrate: N[C@H](Cc1ccc2ccccc2c1)C(=O)O; assay: purified protein; conditions: 75 mM phosphate pH 8.5, 1 mM o-dianisidine, 1 U HRP, 25 °C, 11.9 nM enzyme

T1 sequence (Q75WK2 entry or part of it): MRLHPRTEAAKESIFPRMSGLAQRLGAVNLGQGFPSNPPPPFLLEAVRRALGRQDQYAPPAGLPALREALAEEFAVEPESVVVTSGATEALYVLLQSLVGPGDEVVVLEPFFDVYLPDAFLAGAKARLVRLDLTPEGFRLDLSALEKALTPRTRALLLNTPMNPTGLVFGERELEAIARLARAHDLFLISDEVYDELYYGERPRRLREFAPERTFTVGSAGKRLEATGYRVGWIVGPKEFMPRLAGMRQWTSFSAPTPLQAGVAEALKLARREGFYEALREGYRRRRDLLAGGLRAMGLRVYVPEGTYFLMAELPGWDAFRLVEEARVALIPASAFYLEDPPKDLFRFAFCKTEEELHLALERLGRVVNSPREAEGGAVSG

Molecule	PLP to PMP conversion, absorbance decrease at 430 nm (TtAT)	Km (purified protein [1]) [mM]	kcat (purified protein [1]) [s⁻¹]	kcat/Km (purified protein [1]) [M⁻¹ s⁻¹]	Km (purified protein [2]) [mM]	kcat (purified protein [2]) [s⁻¹]	kcat/Km (purified protein [2]) [M⁻¹ s⁻¹]	Km (purified protein [3]) [mM]	kcat (purified protein [3]) [s⁻¹]	kcat/Km (purified protein [3]) [M⁻¹ s⁻¹]
NC(Cc1ccc(-c2ccccn2)nc1)C(=O)O (racemic) [BPA, L-BPA]	This result indicates that TtAT recognizes BPA and HQA as substrates	–	–	–	–	–	–	–	–	–
NC(Cc1cnc2c(O)cccc2c1)C(=O)O (racemic) [HQA, L-HQA]	This result indicates that TtAT recognizes BPA and HQA as substrates	–	–	–	–	–	–	–	–	–
B1	–	0.087 ± 0.010	7.47 ± 0.333	86700	0.043 ± 0.0094	2.067 ± 0.00667	48300	0.052 ± 0.0087	28.5	550000

Source: article PMC7956486, “Conversion of Racemic Unnatural Amino Acids to Optically Pure Forms by a Coupled Enzymatic Reaction” (Molecules, 2021)
